{"source": "patent US20180057888A1", "about": "“KUB5/HERA AS A DETERMINANT OF SENSITIVITY TO DNA DAMAGE” (priority 2015, published 2018)", "molecular_target": "RNA Polymerase II (RNAPII), phospho-Ser2 C-terminal domain (pS2-CTD) (UniProt P24928)", "test": "cell-based or functional assay", "data": [{"substance": "myc-tagged wild-type Kub5-Hera (K-H) (from UniProt Q9NQG5 1-326)", "values": [{"measurement": "CDK1 promoter activity (luciferase reporter, 231 cells)", "result": 3, "unit": "fold"}]}]}
